The results in this text go back to US20250346679A1 (INVOX PHARMA, published 2025).

Experiment [1] deals with human CD137, cell-surface (human, UniProt Q07011 24-255). The experiment in a line: cell-based or functional assay.
The next experiment deals with T1, hCD137-mFc-Avi (human; mouse, UniProt Q07011 24-186, biotin on the Avi sequence where the biotinylated form was used).
T1 construct: also called human CD137-mFc-Avi; dimeric human CD137; not shown: mouse IgG2a Fc domain (mIgG2a Fc)
Nature of the experiment: SPR, mAb^2 captured by anti-human Fab, antigen in flow, 1:1 Langmuir fit. How it is done: (§1) An anti-human Fab capture antibody was immobilised on all four flow cells of a CM5 series S chip (GE Healthcare #BR-1005-30) to an average surface density of 6000 RU following the manufacturer's recommendations (GE Healthcare, human Fab capture Kit, #28958325). […] Each mAb² was captured to approximately 150 RU by injecting a 3 μg/ml solution of mAb² diluted in HBS-EP+ buffer (GE Healthcare #BR1006-69) for 60 seconds at 30 μl/min. Then different concentrations of human, cyno or mouse CD137 antigen (unbiotinylated human, cyno or mouse CD137-mFc-Avi or human CD137-Avi-His) in HBS-EP+ buffer were flowed over the chip for 3 min at 60 μl/min and then allowed to dissociate for 10 minutes. After each antigen concentration the chip was regenerated by infecting 10 mM glycine pH 2.1 at a flow rate of 30 μl/min for 30 seconds. Buffer HBS-EP+ was injected before the highest concentration of antigen and after the lowest concentration of antigen for reference subtraction, and one of the concentrations at random was repeated twice. The binding kinetics were fit with a 1:1 Langmuir model to generate equilibrium binding constants (KD) for each sample. Data analysis was performed with BiaEvaluation software version 3.2.
Background: SPR reads the build-up and loss of mass on a sensor chip optically.

The target in a further experiment is T2, cCD137-mFc-Avi (cynomolgus; mouse).
T2 construct: also called cynomolgus CD137-mFc-Avi; Cyno CD137-mFc-Avi; not shown: mouse IgG2a Fc domain (mIgG2a Fc)
T2 chain: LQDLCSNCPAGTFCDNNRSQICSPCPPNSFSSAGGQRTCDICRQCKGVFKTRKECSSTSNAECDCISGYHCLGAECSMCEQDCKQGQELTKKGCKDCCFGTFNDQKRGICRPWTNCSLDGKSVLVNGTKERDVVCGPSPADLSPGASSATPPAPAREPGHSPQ
The description is as above. On the procedure:
as §1

The target in the next experiment is human CD40 (human, UniProt P25942 21-193, limits assumed). The experiment in a line: SPR, receptor amine-coupled to CM5 (~1000 RU). On the procedure: (§2) The specificity of the anti-human CD137 Fcabs for human CD137 compared to other related TNFSFR family members was tested. 8 of the Fcabs were tested in mock mAb² (HeID1.3) format and measured by SPR in a Biacore T200 (GE Healthcare) by testing for binding to other human TNFRSF receptors: CD40, OX40 and GITR. Amine coupling (amine coupling kit, GE Healthcare, BR-1000-50) was used to coat human CD40, GITR and OX40 to approximately 1000 RU in Biacore CM5 chips (GE Healthcare, cat no 29149603). […] The chip was regenerated by injection of 10 mM glycine pH 2.5 for 12 s at 30 μl/min. Antibodies specific to the different TNFRSF members were used as positive controls to verify Biacore chip coating. Data was double reference subtracted and analysed using BIAevaluation 3.2 software.
Sequence of human CD40 (P25942 21-193 limits assumed): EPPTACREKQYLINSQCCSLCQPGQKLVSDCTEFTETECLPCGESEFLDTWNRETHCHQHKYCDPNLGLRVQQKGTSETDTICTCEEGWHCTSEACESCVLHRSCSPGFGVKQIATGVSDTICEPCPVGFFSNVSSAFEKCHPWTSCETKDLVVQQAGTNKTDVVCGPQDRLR

The next experiment has as its target T3, human OX40 (human, UniProt P43489 29-216).
T3 sequence (looked up): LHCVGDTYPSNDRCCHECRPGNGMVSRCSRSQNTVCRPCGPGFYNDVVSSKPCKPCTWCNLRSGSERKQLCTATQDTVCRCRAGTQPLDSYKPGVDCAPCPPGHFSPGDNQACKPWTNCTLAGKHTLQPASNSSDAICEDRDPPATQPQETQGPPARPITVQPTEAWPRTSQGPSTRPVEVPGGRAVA
The experiment in a line: SPR, receptor amine-coupled to CM5 (~1000 RU). How it is done:
as §2

A further experiment has as its target T4, human GITR (human, UniProt Q9Y5U5 26-161, limits assumed).
T4 sequence (looked up): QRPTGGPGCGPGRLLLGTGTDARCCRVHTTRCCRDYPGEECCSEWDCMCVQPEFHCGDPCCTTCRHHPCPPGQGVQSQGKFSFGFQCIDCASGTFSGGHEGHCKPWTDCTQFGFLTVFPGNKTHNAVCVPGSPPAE
Nature of the experiment: SPR, receptor amine-coupled to CM5 (~1000 RU). On the procedure:
as §2

T1 sequence (Q07011 24-186): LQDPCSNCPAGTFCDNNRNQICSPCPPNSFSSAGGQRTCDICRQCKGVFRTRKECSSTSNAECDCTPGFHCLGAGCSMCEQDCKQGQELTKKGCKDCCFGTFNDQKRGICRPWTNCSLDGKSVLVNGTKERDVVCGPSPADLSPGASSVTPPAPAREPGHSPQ
Sequence of human CD137, cell-surface (Q07011 24-255): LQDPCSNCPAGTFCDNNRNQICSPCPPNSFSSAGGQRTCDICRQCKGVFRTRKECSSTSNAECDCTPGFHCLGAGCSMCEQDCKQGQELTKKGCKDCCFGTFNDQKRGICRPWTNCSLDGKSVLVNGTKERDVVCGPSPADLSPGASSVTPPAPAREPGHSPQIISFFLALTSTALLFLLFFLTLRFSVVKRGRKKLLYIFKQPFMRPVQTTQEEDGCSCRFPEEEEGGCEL

B1: FS22-053 in HeID1.3 mock mAb^2 format (bispecific antibody, human IgG1, kappa)
heavy: QVQLQESGPGLVRPSQTLSLTCTVSGSTFSGYGVNWVRQPPGRGLEWIGMIWGDGNTDYNSALKSRVTMLVDTSKNQFSLRLSSVTAADTAVYYCARERDYRLDYWGQGSLVTVSSASTKGPSVFPLAPSSKSTSGGTAALGCLVKDYFPEPVTVSWNSGALTSGVHTFPAVLQSSGLYSLSSVVTVPSSSLGTQTYICNVNHKPSNTKVDKKVEPKSCDKTHTCPPCPAPELLGGPSVFLFPPKPKDTLMISRTPEVTCVVVDVSHEDPEVKFNWYVDGVEVHNAKTKPREEQYNSTYRVVSVLTVLHQDWLNGKEYKCKVSNKALPAPIEKTISKAKGQPREPQVYTLPPSRDELNPPYLFSNQVSLTCLVKGFYPSDIAVEWESNGQPENNYKTTPPVLDSDGSFFLYSKLTVYYNRWQDGNVFSCSVMHEALHNHYTQKSLSLSPG
light: DIQMTQSPASLSASVGETVTITCRASGNIHNYLAWYQQKQGKSPQLLVYNAKTLADGVPSRFSGSGSGTQYSLKINSLQPEDFGSYYCQHFWSTPRTFGGGTKLEIKRTVAAPSVFIFPPSDEQLKSGTASVVCLLNNFYPREAKVQWKVDNALQSGNSQESVTEQDSKDSTYSLSSTLTLSKADYEKHKVYACEVTHQGLSSPVTKSFNRGEC
notes: mock mAb^2: CD137 site in the CH3, Fab against hen egg lysozyme
As a reminder, the Kd is the free concentration of one partner at which half of the binding sites on the other are occupied at equilibrium, for simple one-to-one binding. Turning to B1, the “luciferase signal, NF-κB reporter assay (HEK.FRT.luc.hCD137), fold increase on Protein L crosslinking” value in experiment [1] is no less than 10 fold. In addition, the Kd with hCD137-mFc-Avi is 38 nM; in the experiment with cCD137-mFc-Avi, 34 nM.

B2: FS22-053-009/HeID1.3 (bispecific antibody, human IgG1, kappa)
heavy: QVQLQESGPGLVRPSQTLSLTCTVSGSTFSGYGVNWVRQPPGRGLEWIGMIWGDGNTDYNSALKSRVTMLVDTSKNQFSLRLSSVTAADTAVYYCARERDYRLDYWGQGSLVTVSSASTKGPSVFPLAPSSKSTSGGTAALGCLVKDYFPEPVTVSWNSGALTSGVHTFPAVLQSSGLYSLSSVVTVPSSSLGTQTYICNVNHKPSNTKVDKKVEPKSCDKTHTCPPCPAPELLGGPSVFLFPPKPKDTLMISRTPEVTCVVVDVSHEDPEVKFNWYVDGVEVHNAKTKPREEQYNSTYRVVSVLTVLHQDWLNGKEYKCKVSNKALPAPIEKTISKAKGQPREPQVYTLPPSRDELNPPYLFSNQVSLTCLVKGFYPSDIAVEWESNGQPENNYKTTPPVLDSDGSFFLYSKLTVEHTRWLDGNVFSCSVMHEALHNHYTQKSLSLSPG
light: DIQMTQSPASLSASVGETVTITCRASGNIHNYLAWYQQKQGKSPQLLVYNAKTLADGVPSRFSGSGSGTQYSLKINSLQPEDFGSYYCQHFWSTPRTFGGGTKLEIKRTVAAPSVFIFPPSDEQLKSGTASVVCLLNNFYPREAKVQWKVDNALQSGNSQESVTEQDSKDSTYSLSSTLTLSKADYEKHKVYACEVTHQGLSSPVTKSFNRGEC
notes: mock mAb^2; also called FS22-053-009 (mock mAb^2 format)
In the case of B2, the binding result with human CD40, with human OX40 and with human GITR was “no binding (tested: 1 µM)” in each case.

B3: FS22-053-012/HeID1.3 (bispecific antibody, human IgG1, kappa)
heavy: QVQLQESGPGLVRPSQTLSLTCTVSGSTFSGYGVNWVRQPPGRGLEWIGMIWGDGNTDYNSALKSRVTMLVDTSKNQFSLRLSSVTAADTAVYYCARERDYRLDYWGQGSLVTVSSASTKGPSVFPLAPSSKSTSGGTAALGCLVKDYFPEPVTVSWNSGALTSGVHTFPAVLQSSGLYSLSSVVTVPSSSLGTQTYICNVNHKPSNTKVDKKVEPKSCDKTHTCPPCPAPELLGGPSVFLFPPKPKDTLMISRTPEVTCVVVDVSHEDPEVKFNWYVDGVEVHNAKTKPREEQYNSTYRVVSVLTVLHQDWLNGKEYKCKVSNKALPAPIEKTISKAKGQPREPQVYTLPPSRDELNPPYLFSNQVSLTCLVKGFYPSDIAVEWESNGQPENNYKTTPPVLDSDGSFFLYSKLTVDHMRWLEGNVFSCSVMHEALHNHYTQKSLSLSPG
light: DIQMTQSPASLSASVGETVTITCRASGNIHNYLAWYQQKQGKSPQLLVYNAKTLADGVPSRFSGSGSGTQYSLKINSLQPEDFGSYYCQHFWSTPRTFGGGTKLEIKRTVAAPSVFIFPPSDEQLKSGTASVVCLLNNFYPREAKVQWKVDNALQSGNSQESVTEQDSKDSTYSLSSTLTLSKADYEKHKVYACEVTHQGLSSPVTKSFNRGEC
notes: mock mAb^2; also called FS22-053-012 (mock mAb^2 format)
In the case of B3, the binding result in the experiment with human CD40, with human OX40 and in the experiment with human GITR was “no binding (tested: 1 µM)” each time.

B4: FS22-053-010/HeID1.3 (bispecific antibody, human IgG1, kappa)
heavy: QVQLQESGPGLVRPSQTLSLTCTVSGSTFSGYGVNWVRQPPGRGLEWIGMIWGDGNTDYNSALKSRVTMLVDTSKNQFSLRLSSVTAADTAVYYCARERDYRLDYWGQGSLVTVSSASTKGPSVFPLAPSSKSTSGGTAALGCLVKDYFPEPVTVSWNSGALTSGVHTFPAVLQSSGLYSLSSVVTVPSSSLGTQTYICNVNHKPSNTKVDKKVEPKSCDKTHTCPPCPAPELLGGPSVFLFPPKPKDTLMISRTPEVTCVVVDVSHEDPEVKFNWYVDGVEVHNAKTKPREEQYNSTYRVVSVLTVLHQDWLNGKEYKCKVSNKALPAPIEKTISKAKGQPREPQVYTLPPSRDELNPPYLFSNQVSLTCLVKGFYPSDIAVEWESNGQPENNYKTTPPVLDSDGSFFLYSKLTVDYMRWLDGNVFSCSVMHEALHNHYTQKSLSLSPG
light: DIQMTQSPASLSASVGETVTITCRASGNIHNYLAWYQQKQGKSPQLLVYNAKTLADGVPSRFSGSGSGTQYSLKINSLQPEDFGSYYCQHFWSTPRTFGGGTKLEIKRTVAAPSVFIFPPSDEQLKSGTASVVCLLNNFYPREAKVQWKVDNALQSGNSQESVTEQDSKDSTYSLSSTLTLSKADYEKHKVYACEVTHQGLSSPVTKSFNRGEC
notes: mock mAb^2; also called FS22-053-010 (mock mAb^2 format)
Consider B4, for which the binding result with human CD40, with human OX40 and with human GITR was “no binding (tested: 1 µM)” in each case.

B5: FS22-172 in HeID1.3 mock mAb^2 format (bispecific antibody, human IgG1, kappa)
heavy: QVQLQESGPGLVRPSQTLSLTCTVSGSTFSGYGVNWVRQPPGRGLEWIGMIWGDGNTDYNSALKSRVTMLVDTSKNQFSLRLSSVTAADTAVYYCARERDYRLDYWGQGSLVTVSSASTKGPSVFPLAPSSKSTSGGTAALGCLVKDYFPEPVTVSWNSGALTSGVHTFPAVLQSSGLYSLSSVVTVPSSSLGTQTYICNVNHKPSNTKVDKKVEPKSCDKTHTCPPCPAPELLGGPSVFLFPPKPKDTLMISRTPEVTCVVVDVSHEDPEVKFNWYVDGVEVHNAKTKPREEQYNSTYRVVSVLTVLHQDWLNGKEYKCKVSNKALPAPIEKTISKAKGQPREPQVYTLPPSRDELRKYYPPYNQVSLTCLVKGFYPSDIAVEWESNGQPENNYKTTPPVLDSDGSFFLYSKLTVGADRWLEGNVFSCSVMHEALHNHYTQKSLSLSPG
light: DIQMTQSPASLSASVGETVTITCRASGNIHNYLAWYQQKQGKSPQLLVYNAKTLADGVPSRFSGSGSGTQYSLKINSLQPEDFGSYYCQHFWSTPRTFGGGTKLEIKRTVAAPSVFIFPPSDEQLKSGTASVVCLLNNFYPREAKVQWKVDNALQSGNSQESVTEQDSKDSTYSLSSTLTLSKADYEKHKVYACEVTHQGLSSPVTKSFNRGEC
notes: mock mAb^2
Regarding B5, in experiment [1], the “luciferase signal, NF-κB reporter assay (HEK.FRT.luc.hCD137), fold increase on Protein L crosslinking” value is no less than 10 fold. Also, the Kd with hCD137-mFc-Avi was determined as 52 nM; in the experiment with cCD137-mFc-Avi, 203 nM.
